Source: patent publication US20110076272A1, “THERAPEUTIC METHODS AND COMPOSITIONS” (priority 2009, published 2011)

Columns and labels:
[1] = test system: MDA-MB-435 established primary tumors; assay: MDA-MB-435 established primary tumor xenograft model; assay type: in vivo, mouse; design: reduction in activated TAFs assessed by aSMA signal / reduction in VEGF signal versus vehicle-treated tumors / reduction in SDF-1/CXCL12 signal / reduction in LOXL2 signal: concentration or dose not given beside the values
Experimental: To provide growing tumor tissue stock for subsequent orthotopic implantation, five- to six-week-old nude mice (NCr nu/nu) were injected subcutaneously with 2×10^6 MDA-MB-435-GFP cells (Anticancer, Inc., San Diego, Calif.) on the right flank. For this purpose, cultures of MDA-MB-435-GFP cells were harvested and dissociated by trypsinization, washed three times with cold serum-containing medium, and then kept on ice until injection. Cells were injected into the subcutaneous space of the flank of the animal in a total volume of 0.1 ml, within 30 min of harvesting. The nude mice were sacrificed to harvest tumor tissue 4 to 6 weeks after tumor cell injection for surgical orthotopic implantation (SOI) of tumor fragments.
Tumor pieces (˜1 mm^3), extracted from subcutaneously-growing GFP-expressing breast tumors, were implanted by surgical orthotopic implantation (SOI) on the breast of female nude mice (NCr nu/nu). Treatments with AB0023 (anti-LOXL2 monoclonal antibody), M64 (anti-LOX monoclonal antibody) and vehicle (all via intraperitoneal injection) and with Taxotere (by intravenous injection) were initiated when the average primary tumor volume reached 75 mm^3. Mice were administered the antibodies at a dose of 30 mg/kg twice a week for 28 days and Taxotere, at 10 mg/kg, was administered once a week for 3 weeks.
Body weight and tumor size were recorded weekly. At the conclusion of the study, mice were sacrificed by cervical dislocation after being anesthetized with carbon dioxide. Primary breast tumors were imaged, harvested, cut in half symmetrically and snap-frozen for histological and immunohistochemical analyses.
The solutions used for the immunohistochemistry (IHC) protocols were obtained from Biocare Medical (Concord, Calif.) unless otherwise stated. All procedures were performed at room temperature. Slides were fixed with 4% PFA for 10 minutes and were subsequently treated with Peroxidazed-1 (Biocare Medical, Concord, Calif.) for 5 minutes. Then, the slides were background blocked with SNIPER (Biocare Medical, Concord, Calif.) for 10 minutes. Primary antibody (2-5 ug/ml final concentration) was diluted in Da Vinci Green Universal Diluent and applied to slides for 30 minutes. Slides were then rinsed in PBS-Tween-20. The Mach2 polymer kit was used for antigen detection by adding rabbit probe for 30 minutes. DAB chromagen was added to the slides for 3-5 minutes, then slides were rinsed once with deionized water. The slides were then counter-stained with hematoxylin, followed by dehydration with graded alcohol. The slides were mounted with entellan mounting medium (Electron Microscopy Sciences, Hatfield, Pa.).

[2] = test system: MDA-MB-231 cells; assay: Disseminated bone metastasis model, MDA-MB-231 cells injected in the left ventricle; assay type: in vivo, mouse
Experimental: The therapeutic consequences of inhibiting either LOXL2 or LOX were assessed in a model of disseminated bone metastasis. Specific antibodies targeting LOXL2 or LOX were used to treat mice injected in the left ventricle with ˜1 million labeled MDA-MB-231 cells. The breast tumor cell line MDA-MB-231 has been widely used as a model to study LOX, and expresses all 5 lysyl oxidase-type enzymes (FIG. 11, panel A). The ability of LOXL2 inhibitory antibody AB0023 to reduce tumor burden was compared to LOX-specific antibody M64, which is a monoclonal antibody targeting the same peptide sequence in the LOX enzymatic domain previously described as generating an inhibitory polyclonal antiserum.

[3] = test system: HFF cells; assay: Transwell co-culture of HFF cells with LOXL2-secreting tumor cell lines; assay type: cell-based, human; conditions: 72 hours co-culture
[4] = molecular target: T1, LOXL2 (Homo sapiens, UniProt Q9Y4K0); assay: Western blot analysis and ELISA of AB0023 specificity; assay type: binding
T1 sequence (Q9Y4K0 26-774): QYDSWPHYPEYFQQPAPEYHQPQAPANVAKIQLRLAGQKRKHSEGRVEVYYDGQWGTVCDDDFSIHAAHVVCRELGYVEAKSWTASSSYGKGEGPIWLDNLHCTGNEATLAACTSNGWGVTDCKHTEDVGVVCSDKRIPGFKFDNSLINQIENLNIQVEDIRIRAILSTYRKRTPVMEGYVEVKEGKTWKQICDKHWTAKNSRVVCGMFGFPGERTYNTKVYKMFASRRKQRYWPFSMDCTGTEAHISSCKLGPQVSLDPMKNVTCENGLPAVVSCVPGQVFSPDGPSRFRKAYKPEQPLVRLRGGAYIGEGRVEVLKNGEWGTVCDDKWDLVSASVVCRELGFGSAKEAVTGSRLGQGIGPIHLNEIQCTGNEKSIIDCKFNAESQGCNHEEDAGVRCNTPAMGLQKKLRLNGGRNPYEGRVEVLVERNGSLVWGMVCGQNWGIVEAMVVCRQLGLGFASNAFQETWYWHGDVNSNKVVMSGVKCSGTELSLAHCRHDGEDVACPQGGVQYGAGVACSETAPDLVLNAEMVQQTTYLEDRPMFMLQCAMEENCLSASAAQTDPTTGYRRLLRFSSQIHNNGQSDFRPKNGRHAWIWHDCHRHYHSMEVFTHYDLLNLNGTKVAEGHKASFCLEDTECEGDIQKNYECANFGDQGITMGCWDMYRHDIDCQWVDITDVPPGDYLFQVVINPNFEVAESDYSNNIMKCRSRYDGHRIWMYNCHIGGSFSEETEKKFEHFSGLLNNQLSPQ
Experimental: A mouse anti-human LOXL2 antibody (AB0023) was obtained by immunization with full-length LOXL2 protein and purified by SEC-HPLC (Tosoh TSKGEL G3000SWXL 7.8×300). Analytical size exclusion chromatography was used to assess antibody stability and purity. Purified AB0023 was run on SDS-PAGE Coomassie (Invitrogen BT 4-12% Gels) reducing and non-reducing gels to assess purity. Potency was examined by ELISA to determine Kd, and effect on LOXL2 enzymatic activity was determined using an Amplex Red Assay (Molecular Probes/Invitrogen, Carlsbad, Calif.). Antibody concentration was measured by absorbance at 280 nm using an Extinction Coefficient Abs 0.1% of 1.4. Identity was assayed by isoelectric focusing (Invitrogen pH 3-10 IEF Gels). For safety analysis, endotoxin levels were measured at a sensitivity range of 0.01-1 EU/ml (Charles River EndoSafe PTS).

[5] = antibodies 30 mg/kg i.p. twice a week
[6] = tissue-based ELISA, fibroblasts and tumor cells

B1: AB0023: mouse anti-human LOXL2 monoclonal antibody; heavy chain variable region SEQ ID NO:1, light chain variable region SEQ ID NO:2 (antibody, listed as Mus musculus, V domains shown)
VH: MEWSRVFIFLLSVTAGVHSQVQLQQSGAELVRPGTSVKVSCKASGYAFTYYLIEWVKQRPGQGLEWIGVINPGSGGTNYNEKFKGKATLTADKSSSTAYMQLSSLTSDDSAVYFCARNWMNFDYWGQGTTLTVSS
VL: MRCLAEFLGLLVLWIPGAIGDIVMTQAAPSVSVTPGESVSISCRSSKSLLHSNGNTYLYWFLQRPGQSPQFLIYRMSNLASGVPDRFSGSGSGTAFTLRISRVEAEDVGVYYCMQHLEYPYTFGGGTKLEIK
modifications: Heavy chain; Light chain
Q: Which results are given for B1?
A: abundance of fibroblasts in tumors versus vehicle ([1]; H&E staining and other markers): less abundant overall; necrosis in tumors ([1]; H&E, TNF-α IHC): significant regions of necrosis; reduction in LOXL2 signal ([1]; IHC of tumors): 55%; reduction in SDF-1/CXCL12 signal ([1]; IHC of tumors): 80%; reduction in VEGF signal versus vehicle-treated tumors ([1]; IHC of tumors): 76%; decrease in tumor volume at week 3 [1, 5]: 45%; decrease in tumor volume at week 5 [1, 5]: 33%; levels of Beclin-1 (autophagy) in tumor cells ([1]; mouse, in vivo): increased; pyknosis, reduced viability of tumor cells ([1]; mouse, in vivo): pyknosis and increased cytoplasmic condensation of nuclei; levels of TGF-β1 [1, 6]: reduced; levels of phosphorylated SMAD2 [1, 6]: reduced; levels of connective tissue growth factor (CTGF) ([1]; tumor tissue): reduced; reduction in Sirius red staining (crosslinked collagen, desmoplasia) ([1]; tumors harvested at day 39): 61%; reduction in activated TAFs assessed by aSMA signal ([1]; tumors harvested at day 39): 88%; reduction in tumor vasculature, CD31 signal ([1]; tumors harvested at day 39): 74%; reduction in tumor cell burden in the femurs, by median value ([2]; day 28, p=0.0021): 127 fold; reduction in tumor cell burden in total ventral bone, by median value ([2]; day 28, p=0.0197): 28 fold; survival ([2]; separate study, 30 mg/kg AB0023 twice weekly in combination with 5 mg/kg Paclitaxel once per week, p=0.025): significant survival benefit; reduction in VEGF protein expression [3]: 39-46%; reduction in α-SMA levels [3]: 41%; relative decrease in pSMAD2 phosphorylation [3]: 56-94%; cross-reactivity with other lysyl oxidase-type enzymes [4]: no cross-reactivity
